Laboratory results published in the nanobody polyreactivity screen of Harvey et al. (2022).

Assay: yeast display, Sf9 membrane polyspecificity reagent, FACS + sequencing; frameworks hold sequencing errors
Procedure, shortened: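 A synthetic nanobody library was expressed on Saccharomyces cerevisiae BJ5465 by galactose induction for 36–48 hours. The library was stained for 1 hour at 4 °C with 10% biotinylated, detergent-solubilized Sf9 membrane reagent and enriched with streptavidin microbeads before FACS. Low and high (top ~1%) gates were set on anti-HA fluorescence for expression and streptavidin fluorescence for reagent binding, and each polyreactivity label reflects the gate of origin.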
With “QVQLVESGGGLVQAGGSLRLSCAASGIISYVYAMGWYRQAPGKERELVAAINWSGGNTYYADSVKGRFTISRDNAKNTVYLQMNSLKPEDTAVYYCAARAVLKSWAYYYWGQGTQVTVSS” the “polyreactivity (PSR sort gate)” value was “high polyreactivity”.
For “QVQLVESGGGLVQAGGSLRLSCAASGILLFNAMGWYRQAPGKERELVAPINSGGSTNYADSVKGRFTISRDNAKNTVYLQMKSLKPDDTAVYYCGKDTPFTLRVWAEGGMDYWGEGTQVTVSS”, the “polyreactivity (PSR sort gate)” value was “low polyreactivity”.
In the case of “QVQLVESGGGLVQAGGSLRLSCAASGILYYYAMGWYRQAPGKERELVAAITSGGSTNYADSVKGRFTISRDNAKNTVYLQMNSLKPEDTAVYYCNARRWWVIRDYWGQGTQVTVSS”, the “polyreactivity (PSR sort gate)” value is reported as “high polyreactivity”.
With “QVQLVESGGGLVQAGGSLRLSCAASGINFIVNPMGWYRQAPGKEREFVATISANSDGTYYADSVKGRFTISRDNAKNTVYLQMNSLKPEDTAVYYWGQGTQVTVSS” the “polyreactivity (PSR sort gate)” value was “low polyreactivity”.
With “QVQLVESGGGLVQAGGSLRLSCAASGINFQRNDMGWYRQAPGKERELVANIRDGGITYADSVKGRFTISRDNAKNTVYLQMNSLKPEDTAVYYCARDDTSPGYGDQSSNAAYYYWGQGTQVTVSS” the “polyreactivity (PSR sort gate)” value was “low polyreactivity”.
For “QVQLVESGGGLVQAGGSLRLSCAASGINFSYYAMGWYRQAPGKERELVAAIRENGGSTYYADSVKGRFTISRDNAKNTVYLQMNSLKPEDTAVYYCAVDTTYYAGYEYDYWGQGTQVTVSS”, the “polyreactivity (PSR sort gate)” value was “low polyreactivity”.
With “QVQLVESGGGLVQAGGSLRLSCAASGINFWNYAMGWYRQAPGKERELVAAISSSSGRTYYADSVKGRFTISRDNAKNTVYLQMNSLKPEDTAVYYCAARRSFARRFKNSMEYWGQGTQVTVSS” the “polyreactivity (PSR sort gate)” value was “high polyreactivity”.
With “QVQLVESGGGLVQAGGSLRLSCAASGINYDYYTMGWYRQAPGKERELVASINFSGGSTYYADSVKGRFTISRDNAKNTVYLQMNSLKPEDTAVYYCAAVSVSFWGGGRYYYWGQGTQVTVSS” the “polyreactivity (PSR sort gate)” value was “high polyreactivity”.
In the case of “QVQLVESGGGLVQAGGSLRLSCAASGISFITYVMGWYRQAPGKERELVAAISLRGGRTSYADSVKGRFTISRDNAKNTVYLQMNSLKPEDTAVYYCAARAYYTRYDYWGQGTQVTVSS”, the “polyreactivity (PSR sort gate)” value is reported as “high polyreactivity”.
With “QVQLVESGGGLVQAGGSLRLSCAASGISFLDNALGWYRQATGKERELVAAYADSVKGRFTISRDNAKNTVYLQMNSLKPEDTAVYYCNAGWIRNYGFSLVTYDYWGQGTQVTVSS” the “polyreactivity (PSR sort gate)” value was “low polyreactivity”.
With “QVQLVESGGGLVQAGGSLRLSCAASGISFSANAMGWYRQAPGKEREWVAAISASGGSTRYADSVKGRFTISRDNAKNTVYLQMNSLKPEDTAVYYCATRRTSRSKWRHYWGQGTQVTVSS” the “polyreactivity (PSR sort gate)” value was “high polyreactivity”.
For “QVQLVESGGGLVQAGGSLRLSCAASGISFVYYAMGWYRQAPGKERELVAAITSDGGSTYYADSVKGRFTISRDNAKNTVYLQMNSLKPEDTAVYYCAAEWTSWSWWYGWYEFDYWGQGTQVTVSS”, the “polyreactivity (PSR sort gate)” value was “high polyreactivity”.
For “QVQLVESGGGLVQAGGSLRLSCAASGITFADNAMGWYRQAPGKERELVARISRGGRTNYADSVKGRFTISRDNAKNTVYLQMNSLKPEDTAVYYCAADKSSYEYYWGQGTQVTVSS”, the “polyreactivity (PSR sort gate)” value was “high polyreactivity”.
With “QVQLVESGGGLVQAGGSLRLSCAASGITFAIYDMGWYRQAPGKERELVAVISGRGGSTYYADSVKGRFTISRDNAKNTVYLQMNSLKPEDTAVYYCAARGEASIFAGYDYWGQGTQVTVSS” the “polyreactivity (PSR sort gate)” value was “low polyreactivity”.
For “QVQLVESGGGLVQAGGSLRLSCAASGITFANYAMGWYRQAPGKERELVAAISWSDTSTYADSVKGRFTISRDNAKNTVYLQMNSLKPEDTAVYYCAADYHTPSSFAPIELYDYWGQGTQVTVSS”, the “polyreactivity (PSR sort gate)” value was “low polyreactivity”.
For “QVQLVESGGGLVQAGGSLRLSCAASGITFAYYAMGWYRQAPGKERELVAAISRSGGGTYYADSVKGRFTISRDNAKNTVYLQMNSLKPEDTAVYYCNKDYPYYNSGPWAYKFDYWGQGTQVTVSS”, the “polyreactivity (PSR sort gate)” value was “high polyreactivity”.
For “QVQLVESGGGLVQAGGSLRLSCAASGITFAYYVMGWYRQAPGKERELVATITGRGGSTSYADSVKGRFTISRDNEKNPVYLQMNSLKPEETAVYYCATGRYSVADNYWGQGTQVTVSS”, the “polyreactivity (PSR sort gate)” value was “high polyreactivity”.
In the case of “QVQLVESGGGLVQAGGSLRLSCAASGITFDDYVMGWYRQAPGKERELVAAITRSGGRTYYADSVKGRFTISRDNAKNTVYLQMNSLKPEDTAVYYCAARHRDNRFDYWGQGTQVTVSS”, the “polyreactivity (PSR sort gate)” value is reported as “high polyreactivity”.
In the case of “QVQLVESGGGLVQAGGSLRLSCAASGITFDGYAMGWYRQAPGKERELVAAITYSGGRTYYADSVKGRFTISRDNAKNTVYLQMNCLKPDDTAVYYCAVVSRRLYEYDYWGQGTQVTVSS”, the “polyreactivity (PSR sort gate)” value is reported as “high polyreactivity”.
With “QVQLVESGGGLVQAGGSLRLSCAASGITFDHSAMGWYRQAPGKEREFVAAIDDIGGDTYYADSVKGRFTISRDNAKNTVYLQMNSLKPEDTAVDYCAADYGYYSRFYYWGQGTQVTVSS” the “polyreactivity (PSR sort gate)” value was “low polyreactivity”.
In the case of “QVQLVESGGGLVQAGGSLRLSCAASGITFDKYAMGWYRQAPGKERELVAAISWGGGRTYYADSVKGRFTISRDNAKNTVYLQMNSLKPEDTAVYYCATSHGLYTRWYDYWGQGTQVTVSS”, the “polyreactivity (PSR sort gate)” value is reported as “high polyreactivity”.
In the case of “QVQLVESGGGLVQAGGSLRLSCAASGITFDLYDMGWYRQAPGKERELVAAITDADSTYYADSVKGRFTISRDNAKNTVYLQMNSLKPEDTAVYYCAADFFYSVYSGHYDYWGQGTQVTVSS”, the “polyreactivity (PSR sort gate)” value is reported as “low polyreactivity”.
For “QVQLVESGGGLVQAGGSLRLSCAASGITFDRYVMGWYRQAPGKERELVAAISWTGDSTYYADSVKGRFTISRDNAKNTVYLQMNSQKPEDTAVYYCAAEDLWYGYNYWGQGTQVTVSS”, the “polyreactivity (PSR sort gate)” value was “high polyreactivity”.
For “QVQLVESGGGLVQAGGSLRLSCAASGITFDYNAMGWYRQAPGKERELVADISASGDSTYYADSVKGRFTISRDNAKNTVYLQMNSLKPEDTAVYYCNTAYWYSWGYDYWGQGTQVTVSS”, the “polyreactivity (PSR sort gate)” value was “low polyreactivity”.
With “QVQLVESGGGLVQAGGSLRLSCAASGITFDYYAMGWYRQAPRKERELVAAITGGGSTNYADSVKGRFTISRDNAKNTVYLQMNSLIPEDTAVYFCNALTRYRYQYGYLGGTGYNYWGHGTQVTVSS” the “polyreactivity (PSR sort gate)” value was “low polyreactivity”.
In the case of “QVQLVESGGGLVQAGGSLRLSCAASGITFEDNAMGWYRQAPGKERELVATISDGGRTYYADSVKGRFTISRDNAKNTVYIQMNSLKPEDTAVYYCAAGYPYYHVYGYGYWGQGTQVTVSS”, the “polyreactivity (PSR sort gate)” value is reported as “low polyreactivity”.
In the case of “QVQLVESGGGLVQAGGSLRLSCAASGITFEGYALGWYRQAPGKERELVAAIRSSGTSTYYADSVKGRFTISRDNAKNTVYLQMNSLKPEDTAVYYCNRARSSSRYDYWGQGTQVTVSS”, the “polyreactivity (PSR sort gate)” value is reported as “low polyreactivity”.
For “QVQLVESGGGLVQAGGSLRLSCAASGITFERNGMGWYRQAPGKERELVAAIRSGGSTYYADSVKGRFTISRDNAKNTVYLQMNSLKPEDTAVYYCNAPYGRQGYDYWGQGTQVTVSS”, the “polyreactivity (PSR sort gate)” value was “low polyreactivity”.
In the case of “QVQLVESGGGLVQAGGSLRLSCAASGITFEYYAMGWYRQAPGKERELVAAIDTGGSTNYADSVKGRFTISRDNAKNTVYLQMNSLKPEDTAVYYCAADWSWWDGEDYHFEVDYWGQGTQVTVSS”, the “polyreactivity (PSR sort gate)” value is reported as “low polyreactivity”.
With “QVQLVESGGGLVQAGGSLRLSCAASGITFEYYTMGWYRQAPGKERELVAAITSGGSTYYADSVKGRFTISRDNAKNTVYLQMNSLKPEDTAVYYCNADWSATSGEWTWFQYDYWGQGTQVTVSS” the “polyreactivity (PSR sort gate)” value was “high polyreactivity”.
In the case of “QVQLVESGGGLVQAGGSLRLSCAASGITFFAYAMGWYRQAPGKERELVAAIWRGDNTYYADSVKGRFTISRDNAKNTVYLQMNSLKPEDTAVYYCAARYWSRRIFREGYWGQGTQVTVSS”, the “polyreactivity (PSR sort gate)” value is reported as “high polyreactivity”.
In the case of “QVQLVESGGGLVQAGGSLRLSCAASGITFFRNARGWYRQAPGKEREFVATISRSSGSTYADSVKGRFTISRDNAKNTVYLQMNSLKPEDTAVYYCAAERTYSDSLSFDHWGQGTQVTVSS”, the “polyreactivity (PSR sort gate)” value is reported as “low polyreactivity”.
With “QVQLVESGGGLVQAGGSLRLSCAASGITFFTYAMGWYRQAPGKERELVAAISGSGGSTYYADSVKGRFTISRDNAKNTVYLQMNSLKPEDTAVYYCATDTGYPYSYDLYDSYYWGQGTQVTVSS” the “polyreactivity (PSR sort gate)” value was “low polyreactivity”.
With “QVQLVESGGGLVQAGGSLRLSCAASGITFGDNDMGWYRQAPGKDRELVASISSGGSTTYADSVKGRFTISRDNAKNTVYLQMNSLKPEDTADYYCNADYGSSVEYNYWGQGTQVTVSS” the “polyreactivity (PSR sort gate)” value was “low polyreactivity”.
For “QVQLVESGGGLVQAGGSLRLSCAASGITFGDYAMGWYRQAPGKERELVAAISYGGGSTYYADSVKGSFTISRDNAKNTVYLQMNSLKPEDTAVYYCAADGWRTYGYYEYDYWGQGTQVTVSS”, the “polyreactivity (PSR sort gate)” value was “low polyreactivity”.
In the case of “QVQLVESGGGLVQAGGSLRLSCAASGITFGDYDMGWYRPAPGKERELVAAITYDGGTTYYADSVKGRFTISRDNAKNTVYLQMHSLKPEDTAVYYCNADSYRGLYDYWGQGTQVTVSS”, the “polyreactivity (PSR sort gate)” value is reported as “low polyreactivity”.
For “QVQLVESGGGLVQAGGSLRLSCAASGITFGFYAMGWYRQAPGKERELVASITWRGGSTYYADSVKGRFTISRDNAKNTVYLQMNSLKPEDTAVYYCAAEQYVFRPRAQEITTYDYWGQGTQVTVTS”, the “polyreactivity (PSR sort gate)” value was “high polyreactivity”.
In the case of “QVQLVESGGGLVQAGGSLRLSCAASGITFGKNAMGWYRQAPGKESEFVAAISWGGGRTYYADSVKGRFTISRDNAKNTVYLQMNSLKPEDTAVYYCNVGPRAGWYRSNYDYWGQGTQVTVSS”, the “polyreactivity (PSR sort gate)” value is reported as “low polyreactivity”.
With “QVQLVESGGGLVQAGGSLRLSCAASGITFGLYVMGWYRQAPRKERELVAANSSGGSTNYADSVKGRFTISRDNAKNPVYLQMNSLKPEDTAVYYCNADRLRPEYDYWGQGTQVTVSS” the “polyreactivity (PSR sort gate)” value was “low polyreactivity”.
For “QVQLVESGGGLVQAGGSLRLSCAASGITFGPYAMGWYRQAPGKERELVAAITWGGGSTYYADSVKGRFTISRDNAKNTVYFQMNSLKPEDTAVYYCAASVEWYGWYPYDFWGQGTQVTVSS”, the “polyreactivity (PSR sort gate)” value was “low polyreactivity”.
With “QVQLVESGGGLVQAGGSLRLSCAASGITFGRNTMGWYRQAPGKERELVAAIDSGGNTYADSVKGRFTISRDNAKNTVYLLMNSLKPDDTAVYYCAVDGGEFSSYVYWGQGTQVTVSS” the “polyreactivity (PSR sort gate)” value was “low polyreactivity”.
With “QVQLVESGGGLVQAGGSLRLSCAASGITFGRYAMGWYREAPGKERELVAAISRRGGSTHYADSVKGRFTISRDNAKNTVYLQMNSLKPEDTAVYYCNASPYRYRPSEYDYWGQGTQVTVSS” the “polyreactivity (PSR sort gate)” value was “high polyreactivity”.
In the case of “QVQLVESGGGLVQAGGSLRLSCAASGITFGSYAMGWYRHAPGKERELVAAIRWRGGNTYYADSVKGRFTISRDNAKNTVYLQMNSLKPEDTAVYSCAARRYGYRYDQPYYNDYWGQGTQVTVSS”, the “polyreactivity (PSR sort gate)” value is reported as “low polyreactivity”.
